Experimental data published in paper PMC9482650, “Quantitative fragmentomics allow affinity mapping of interactomes” (Nature Communications, 2022).

Experiments:
Assay in all cases: holdup assay
Set-up in all cases: key: below the threshold = too weak to quantify, mostly under pKd 3.1 to 4
PDZD2_2, O15018 = molecular target: T1, PDZD2_2, O15018
T1 sequence (O15018 329-429, limits assumed, looked up): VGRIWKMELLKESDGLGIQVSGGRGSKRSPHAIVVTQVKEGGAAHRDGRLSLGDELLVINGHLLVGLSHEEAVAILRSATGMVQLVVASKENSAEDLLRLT

APBA3_1, O96018 = molecular target: T2, APBA3_1, O96018
T2 sequence (O96018 389-490, limits assumed, looked up): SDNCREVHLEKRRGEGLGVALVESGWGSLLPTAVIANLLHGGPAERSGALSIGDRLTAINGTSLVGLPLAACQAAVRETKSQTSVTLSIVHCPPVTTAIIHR

DLG2_3, Q15700 = molecular target: DLG2_3, Q15700
AHNAK1, Q09666 = molecular target: AHNAK1, Q09666
Chain of AHNAK1, Q09666 (Q09666 4-100): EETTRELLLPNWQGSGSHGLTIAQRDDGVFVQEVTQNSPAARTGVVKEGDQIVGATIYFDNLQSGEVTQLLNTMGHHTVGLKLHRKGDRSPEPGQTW

SNX27, Q96L92 = molecular target: SNX27, Q96L92
LAP2, Q96RT1 = molecular target: LAP2, Q96RT1
Chain of LAP2, Q96RT1 (Q96RT1 other isoform, or with tags, fused parts or gaps): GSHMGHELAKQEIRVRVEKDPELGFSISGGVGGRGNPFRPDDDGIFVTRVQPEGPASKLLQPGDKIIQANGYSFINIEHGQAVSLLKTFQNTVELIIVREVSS

SNTA1, Q13424 = molecular target: T3, SNTA1, Q13424
T3 sequence (Q13424 82-180, limits assumed, looked up): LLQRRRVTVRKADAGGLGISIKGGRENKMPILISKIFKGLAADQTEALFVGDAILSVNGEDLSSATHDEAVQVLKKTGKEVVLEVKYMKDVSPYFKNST

DVL3, Q92997 = molecular target: T4, DVL3, Q92997
T4 sequence (Q92997 244-331, limits assumed, looked up): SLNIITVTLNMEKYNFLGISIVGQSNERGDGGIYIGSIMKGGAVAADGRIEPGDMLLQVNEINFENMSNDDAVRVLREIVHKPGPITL

MPP6, Q9NZW5 = molecular target: T5, MPP6, Q9NZW5
T5 sequence (Q9NZW5 125-219, limits assumed, looked up): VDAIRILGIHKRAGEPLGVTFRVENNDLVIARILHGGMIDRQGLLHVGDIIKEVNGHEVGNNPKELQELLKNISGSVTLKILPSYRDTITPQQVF

MPP7, Q5T2T1 = molecular target: T6, MPP7, Q5T2T1
T6 sequence (Q5T2T1 134-230, limits assumed, looked up): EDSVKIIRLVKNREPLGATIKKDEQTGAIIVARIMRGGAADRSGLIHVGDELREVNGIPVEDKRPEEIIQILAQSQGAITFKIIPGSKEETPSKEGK

DLG5_1, Q8TDM6 = molecular target: DLG5_1, Q8TDM6
Chain of DLG5_1, Q8TDM6 (Q8TDM6 617-713): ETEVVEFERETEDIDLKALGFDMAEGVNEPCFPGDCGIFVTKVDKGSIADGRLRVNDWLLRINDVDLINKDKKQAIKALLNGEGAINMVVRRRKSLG

PTPN13_1, Q12923 = molecular target: T7, PTPN13_1, Q12923
T7 sequence (Q12923 1088-1188, limits assumed, looked up): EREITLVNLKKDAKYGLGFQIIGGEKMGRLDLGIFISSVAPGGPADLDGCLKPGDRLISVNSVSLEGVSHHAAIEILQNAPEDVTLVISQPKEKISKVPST

GRIP2_6, Q9C0E4 = molecular target: GRIP2_6, Q9C0E4
Chain of GRIP2_6, Q9C0E4 (Q9C0E4 648-740): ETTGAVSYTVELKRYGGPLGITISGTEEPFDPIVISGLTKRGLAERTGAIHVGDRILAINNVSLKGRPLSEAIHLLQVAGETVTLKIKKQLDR

SNTB1, Q13884 = molecular target: T8, SNTB1, Q13884
T8 sequence (Q13884 107-205, limits assumed, looked up): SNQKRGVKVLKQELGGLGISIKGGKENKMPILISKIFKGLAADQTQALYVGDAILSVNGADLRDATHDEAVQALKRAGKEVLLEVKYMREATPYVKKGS

APBA2_1, Q99767 = molecular target: T9, APBA2_1, Q99767
T9 sequence (Q99767 563-664, limits assumed, looked up): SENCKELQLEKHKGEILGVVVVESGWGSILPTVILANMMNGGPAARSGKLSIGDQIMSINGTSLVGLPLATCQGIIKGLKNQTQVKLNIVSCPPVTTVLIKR

MAGI2_6, Q86UL8 = molecular target: MAGI2_6, Q86UL8
Chain of MAGI2_6, Q86UL8 (Q86UL8 1141-1229): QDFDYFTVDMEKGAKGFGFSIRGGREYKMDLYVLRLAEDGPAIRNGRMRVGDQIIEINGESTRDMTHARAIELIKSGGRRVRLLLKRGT

FRMPD2_3, Q68DX3 = molecular target: FRMPD2_3, Q68DX3
Chain of FRMPD2_3, Q68DX3 (Q68DX3 1073-1166): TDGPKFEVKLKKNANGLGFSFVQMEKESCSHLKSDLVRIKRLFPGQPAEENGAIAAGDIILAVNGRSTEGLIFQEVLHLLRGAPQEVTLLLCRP

FRMPD2_1, Q68DX3 = molecular target: FRMPD2_1, Q68DX3
Chain of FRMPD2_1, Q68DX3 (Q68DX3 770-861): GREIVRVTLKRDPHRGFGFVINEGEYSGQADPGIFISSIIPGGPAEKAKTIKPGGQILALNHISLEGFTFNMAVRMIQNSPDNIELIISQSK

ARHGEF11, O15085 = molecular target: T10, ARHGEF11, O15085
T10 sequence (O15085 42-136, limits assumed, looked up): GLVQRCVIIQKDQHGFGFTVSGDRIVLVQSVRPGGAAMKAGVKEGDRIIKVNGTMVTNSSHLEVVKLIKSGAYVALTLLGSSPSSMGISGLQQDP

DLG3_1, Q92796 = molecular target: T11, DLG3_1, Q92796
T11 sequence (Q92796 125-227, limits assumed, looked up): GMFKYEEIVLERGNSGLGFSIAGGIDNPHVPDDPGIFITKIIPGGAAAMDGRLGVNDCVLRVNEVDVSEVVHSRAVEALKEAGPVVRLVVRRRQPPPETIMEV

HTRA2, O43464 = molecular target: HTRA2, O43464
Chain of HTRA2, O43464 (O43464 355-458): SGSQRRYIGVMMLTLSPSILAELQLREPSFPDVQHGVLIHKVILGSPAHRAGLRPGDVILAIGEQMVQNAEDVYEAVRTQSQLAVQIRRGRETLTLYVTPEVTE

IL16_4, Q14005 = molecular target: IL16_4, Q14005
Chain of IL16_4, Q14005 (Q14005 1229-1329): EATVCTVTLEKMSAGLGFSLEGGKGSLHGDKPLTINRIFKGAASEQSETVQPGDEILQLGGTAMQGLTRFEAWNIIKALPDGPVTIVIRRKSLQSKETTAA

PARD3_3, Q8TEW0 = molecular target: PARD3_3, Q8TEW0
Chain of PARD3_3, Q8TEW0 (Q8TEW0 582-685): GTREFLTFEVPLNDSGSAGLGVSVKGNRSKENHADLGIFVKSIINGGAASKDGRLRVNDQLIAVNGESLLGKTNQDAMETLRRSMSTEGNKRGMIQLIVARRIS

RAPGEF6, Q8TEU7 = molecular target: T12, RAPGEF6, Q8TEU7
T12 sequence (Q8TEU7 525-625, limits assumed, looked up): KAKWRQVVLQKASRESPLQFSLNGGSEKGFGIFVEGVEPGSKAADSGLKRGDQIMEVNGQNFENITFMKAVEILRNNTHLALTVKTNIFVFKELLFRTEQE

LRRC7, Q96NW7 = molecular target: T13, LRRC7, Q96NW7
T13 sequence (Q96NW7 1440-1537, limits assumed, looked up): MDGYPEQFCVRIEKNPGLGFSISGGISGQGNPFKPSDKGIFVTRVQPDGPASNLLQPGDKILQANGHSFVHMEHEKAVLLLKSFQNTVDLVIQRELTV

[1] = plain residues with an end cap or a label only (N-terminal biotin on a linker: ahx)
[2] = plain residues with an end cap or a label only (N-terminal biotin on a linker: ado-ado)
[3] = plain residues with an end cap or a label only (N-terminal biotin on a linker: ttds)

Measured: pKd

B1: LNX1, Q8TBB1 (peptide)
chain: TIVSWPGTFL
3.79: SNX27, Q96L92; [1]
below the threshold: APBA3_1, O96018; [1] | DLG2_3, Q15700; [1] | AHNAK1, Q09666; [1] | LAP2, Q96RT1; [1] | SNTA1, Q13424; [1] | DVL3, Q92997; [1] | MPP6, Q9NZW5; [1] | MPP7, Q5T2T1; [1] | DLG5_1, Q8TDM6; [1] | PTPN13_1, Q12923; [1] | GRIP2_6, Q9C0E4; [1] | SNTB1, Q13884; [1] | APBA2_1, Q99767; [1] | FRMPD2_3, Q68DX3; [1] | FRMPD2_1, Q68DX3; [1] | ARHGEF11, O15085; [1] | DLG3_1, Q92796; [1] | IL16_4, Q14005; [1] | PARD3_3, Q8TEW0; [1] | RAPGEF6, Q8TEU7; [1] | LRRC7, Q96NW7; [1]
4.03: PDZD2_2, O15018; [1]
3.67: MAGI2_6, Q86UL8; [1]
3.94: HTRA2, O43464; [1]

B2: ACOT6, Q3I5F7 (peptide)
chain: GKKSVKHSKI
3.47: PTPN13_1, Q12923; [2]
3.55: SNTA1, Q13424; [2]
3.65: DLG2_3, Q15700; [2]
3.92: SNTB1, Q13884; [2]
3.5: MPP6, Q9NZW5; [2]
below the threshold: APBA3_1, O96018; [2] | AHNAK1, Q09666; [2] | SNX27, Q96L92; [2] | LAP2, Q96RT1; [2] | DVL3, Q92997; [2] | MPP7, Q5T2T1; [2] | DLG5_1, Q8TDM6; [2] | GRIP2_6, Q9C0E4; [2] | APBA2_1, Q99767; [2] | MAGI2_6, Q86UL8; [2] | FRMPD2_3, Q68DX3; [2] | FRMPD2_1, Q68DX3; [2] | ARHGEF11, O15085; [2] | DLG3_1, Q92796; [2] | HTRA2, O43464; [2] | IL16_4, Q14005; [2] | PARD3_3, Q8TEW0; [2] | RAPGEF6, Q8TEU7; [2] | LRRC7, Q96NW7; [2]
4.03: PDZD2_2, O15018; [2]

B3: CTNNB1, P35222 (peptide)
chain: NQLAWFDTDL
4.91: SNX27, Q96L92; [3]
3.94: LRRC7, Q96NW7; [3]
3.77: ARHGEF11, O15085; [3]
below the threshold: PDZD2_2, O15018; [3] | APBA3_1, O96018; [3] | DLG2_3, Q15700; [3] | AHNAK1, Q09666; [3] | SNTA1, Q13424; [3] | DVL3, Q92997; [3] | MPP6, Q9NZW5; [3] | MPP7, Q5T2T1; [3] | DLG5_1, Q8TDM6; [3] | PTPN13_1, Q12923; [3] | GRIP2_6, Q9C0E4; [3] | SNTB1, Q13884; [3] | APBA2_1, Q99767; [3] | FRMPD2_3, Q68DX3; [3] | FRMPD2_1, Q68DX3; [3] | DLG3_1, Q92796; [3] | HTRA2, O43464; [3] | IL16_4, Q14005; [3] | PARD3_3, Q8TEW0; [3] | RAPGEF6, Q8TEU7; [3]
5.15: MAGI2_6, Q86UL8; [3]
4.53: LAP2, Q96RT1; [3]

B4: HPV31-E6, P17386 (peptide)
chain: SRRPRTETQV
3.58: ARHGEF11, O15085; [3]
3.7: PDZD2_2, O15018; [3]
4.29: SNTA1, Q13424; [3]
4.44: DLG3_1, Q92796; [3]
5.1: DLG2_3, Q15700; [3]
below the threshold: APBA3_1, O96018; [3] | AHNAK1, Q09666; [3] | DVL3, Q92997; [3] | MPP6, Q9NZW5; [3] | MPP7, Q5T2T1; [3] | DLG5_1, Q8TDM6; [3] | PTPN13_1, Q12923; [3] | GRIP2_6, Q9C0E4; [3] | APBA2_1, Q99767; [3] | MAGI2_6, Q86UL8; [3] | FRMPD2_3, Q68DX3; [3] | FRMPD2_1, Q68DX3; [3] | HTRA2, O43464; [3] | IL16_4, Q14005; [3] | PARD3_3, Q8TEW0; [3] | RAPGEF6, Q8TEU7; [3] | LRRC7, Q96NW7; [3]
4.64: SNX27, Q96L92; [3]
3.9: LAP2, Q96RT1; [3]
4.15: SNTB1, Q13884; [3]

B5: SHROOM3, Q8TF72 (peptide)
chain: GIFPTLTSPL
3.91: SNX27, Q96L92; [1]
below the threshold: APBA3_1, O96018; [1] | DLG2_3, Q15700; [1] | AHNAK1, Q09666; [1] | LAP2, Q96RT1; [1] | SNTA1, Q13424; [1] | DVL3, Q92997; [1] | MPP6, Q9NZW5; [1] | MPP7, Q5T2T1; [1] | DLG5_1, Q8TDM6; [1] | PTPN13_1, Q12923; [1] | GRIP2_6, Q9C0E4; [1] | SNTB1, Q13884; [1] | APBA2_1, Q99767; [1] | MAGI2_6, Q86UL8; [1] | FRMPD2_3, Q68DX3; [1] | FRMPD2_1, Q68DX3; [1] | DLG3_1, Q92796; [1] | HTRA2, O43464; [1] | IL16_4, Q14005; [1] | PARD3_3, Q8TEW0; [1] | RAPGEF6, Q8TEU7; [1] | LRRC7, Q96NW7; [1]
3.48: PDZD2_2, O15018; [1]
3.49: ARHGEF11, O15085; [1]
